Our source for the ELISA signal, titer endblood and Titer (-10log dilution) values is patent US20120231000A1.

For test [1], the target named is ratVEGF1-165 homodimer (recombinant full-length ratVEGF) (rat) (UniProt P16612). The test is described as follows: ELISA on coated antigen. (In an ELISA, binding on a coated surface is turned into a signal by an enzyme label.)
The target in test [2] is humVEGF1-165 homodimer (recombinant full-length humanVEGF) (human) (UniProt P15692). The test can be described thus: ELISA titer on coated humVEGF1-165, 5000 ng/mL.
Sequence of humVEGF1-165 homodimer (recombinant full-length humanVEGF) (human) (P15692 other isoform, or with tags, fused parts or gaps): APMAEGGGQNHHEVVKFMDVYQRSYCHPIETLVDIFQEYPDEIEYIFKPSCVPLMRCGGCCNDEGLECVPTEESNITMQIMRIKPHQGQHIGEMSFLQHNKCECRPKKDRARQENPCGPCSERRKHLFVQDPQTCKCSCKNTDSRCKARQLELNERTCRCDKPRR

Bounds are passed on as bounds.

Sequence of ratVEGF1-165 homodimer (recombinant full-length ratVEGF) (rat) (P16612 27-165, form in doubt): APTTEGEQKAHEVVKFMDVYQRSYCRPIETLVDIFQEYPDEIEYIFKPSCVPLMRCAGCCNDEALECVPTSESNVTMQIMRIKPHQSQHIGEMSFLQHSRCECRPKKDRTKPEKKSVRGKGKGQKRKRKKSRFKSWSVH

In the case of Avastin™ (Bevacizumab) (antibody), in test [1], the ELISA signal at dilution 1/100 came to 236, the ELISA signal at dilution 1/300 is 148, the ELISA signal at dilution 1/1000 was 103 and the titer endblood was less than 1000 ng/mL.
For the substance BioVision™ (control Ab) (antibody), the Titer (-10log dilution) in test [2] came to 4.2.
